Results as given in publication PMC7360120.

Biological target: HA-ELKS1αB

GST-Rab6B Q72L (from UniProt P61294 1-208) (natural protein)
fraction of synapses with mito-Rab6-tagged mitochondria in neurons co-expressing mito-Rab6BQL and HA-ELKS1αB, compared to inactive Rab6B (mito-Rab6BTN) or HA-ELKS1^∆955-971: 2 fold
